B1: Centrosomal protein of 135 kDa (Homo sapiens), Q66GS9 (parent)
chain: MTTAVERKYINIRKRLDQLGYRQTLTVECLPLVEKLFSDLVHTTESLRQSKLSAVKAEKESANFDFVLEPYKLENARLSRENNELYLELMKLREHSDQHVKELKTSLKKCARETADLKFLNNQYAHKLKLLEKESKAKNERIQQLQEKNLHAVVQTPGGKKRSIAFRRQRMQIDEPVPPSEVSSYPVPQPDDPYIADLLQVADNRIQELQQEVHQLQEKLAMMESGVRDYSKQIELREREIERLSVALDGGRSPDVLSLESRNKTNEKLIAHLNIQVDFLQQANKDLEKRIRELMETKETVTSEVVNLSNKNEKLCQELTEIDQLAQQLERHKEEVLETADKELGEAKKEIKRKLSEMQDLEETMAKLQLELNLCQKEKERLSDELLVKSDLETVVHQLEQEKQRLSKKVESFAVTERQLTLEVERMRLEHGIKRRDRSPSRLDTFLKGIEEERDYYKKELERLQHIIQRRSCSTSYSAREKSSIFRTPEKGDYNSEIHQITRERDELQRMLERFEKYMEDIQSNVKLLTAERDKLSVLYNEAQEELSALRKESTQTTAPHNIVSLMEKEKELALSDLRRIMAEKEALREKLEHIEEVSLFGKSELEKTIEHLTCVNHQLESEKYELKSKVLIMKETIESLENKLKVQAQKFSHVAGDSSHQKTEVNSLRIVNEQLQRSVDDYQHRLSIKRGELESAQAQIKILEEKIDELNLKMTSQDEEAHVMKKTIGVIDKEKDFLQETVDEKTEKIANLQENLANKEKAVAQMKIMISECESSVNQLKETLVNRDREINSLRRQLDAAHKELDEVGRSREIAFKENRRLQDDLATMARENQEISLELEAAVQEKEEMKSRVHKYITEVSRWESLMAAKEKENQDLLDRFQMLHNRAEDWEVKAHQAEGESSSVRLELLSIDTERRHLRERVELLEKEIQEHINAHHAYESQISSMAKAMSRLEEELRHQEDEKATVLNDLSSLRELCIKLDSGKDIMTQQLNSKNLEFERVVVELENVKSESDLLKKQLSNERHTVKNLESLLATNRDKEFHSHLTSHEKDTEIQLLKEKLTLSESKLTSQSRENTMLRAKVAQLQTDYDALKRQISTERYERERAIQEMRRHGLATPPLSSTLRSPSHSPEHRNV
partner: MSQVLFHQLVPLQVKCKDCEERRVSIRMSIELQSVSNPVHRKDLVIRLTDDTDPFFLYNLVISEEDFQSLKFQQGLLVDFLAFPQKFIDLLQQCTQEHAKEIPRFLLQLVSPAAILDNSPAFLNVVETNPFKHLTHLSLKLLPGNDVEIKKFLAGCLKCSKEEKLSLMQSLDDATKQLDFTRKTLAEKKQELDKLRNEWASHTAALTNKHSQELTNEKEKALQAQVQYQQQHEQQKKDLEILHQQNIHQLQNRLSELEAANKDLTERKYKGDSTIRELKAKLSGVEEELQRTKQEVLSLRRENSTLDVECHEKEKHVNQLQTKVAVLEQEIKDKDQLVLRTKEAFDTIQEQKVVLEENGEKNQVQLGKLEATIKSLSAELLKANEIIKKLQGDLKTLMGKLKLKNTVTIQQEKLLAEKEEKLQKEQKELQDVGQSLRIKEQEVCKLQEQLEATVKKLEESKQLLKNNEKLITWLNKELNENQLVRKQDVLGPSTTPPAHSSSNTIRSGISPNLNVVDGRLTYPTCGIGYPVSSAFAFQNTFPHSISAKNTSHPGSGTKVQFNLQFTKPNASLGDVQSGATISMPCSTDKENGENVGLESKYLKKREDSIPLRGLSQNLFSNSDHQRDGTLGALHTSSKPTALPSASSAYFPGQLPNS

Variants of: B1
Conditions: with sas6_human SASS6, Q6UVJ0

| Variant | effect of a mutation on the interaction |
| --- | --- |
| L588P | disrupting interaction |

From IntAct's records for PubMed 23511974
